Results from patent US20070004909A1.

Target: soluble CD16A (sCD16A) (UniProt P08637)
Test: SPR (BIAcore 1000); receptor amine-coupled (~1000 RU), scFv as analyte; units not printed (koff/kon implies nM)

Sequence of soluble CD16A (sCD16A) (P08637 17-208 limits assumed): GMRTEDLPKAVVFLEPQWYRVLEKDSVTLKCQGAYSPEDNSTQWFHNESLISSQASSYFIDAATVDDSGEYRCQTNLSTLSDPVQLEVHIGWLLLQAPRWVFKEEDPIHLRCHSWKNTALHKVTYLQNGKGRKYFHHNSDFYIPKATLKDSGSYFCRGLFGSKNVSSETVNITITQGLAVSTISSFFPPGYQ

Q: h3G8 scFv was tested. Which Kd did it give?
A: 38.7 nM
